Measured values from article PMC10787639 (Frontiers in Molecular Biosciences, 2023).

What was measured:
[1] = type: physicochemical; conditions: lyophilised peptide; resuspended in DMSO at 8 mg/mL (4.8 mM) instead
Excerpt: A 15mer Ct PolD3 PIP peptide spanning residues 437–451 (sequence: ^437GKGGQGSIMSWFAKK^451) and a 15mer Ct Fen1 peptide spanning residues 339–353 (^339GAQQARIEGFFKVIP^353) were commercially synthesised (GenScript, Piscataway, New Jersey, United States) and obtained in lyophilised form at final purities of 99.4% and 99.1%, respectively.

[2] = target: Chaetomium thermophilum PCNA (proliferating cell nuclear antigen) (Chaetomium thermophilum); assay: crystal structure; Ct PCNA (14 mg/mL) mixed with Ct PolD3 PIP peptide (8 mg/mL in dH2O); crystals in 0.1 M phosphate/citrate pH 4.2, 40% PEG 300; space group P1, one PCNA trimer in the asymmetric unit; 2.45 A; the peptide occupies a single PIP binding site, the others occluded by crystal packing
PolD3/p66 (Homo sapiens) = PolD3/p66 (Homo sapiens) (UniProt Q15054); assay: ITC; conditions: cited from earlier work
PolD4 (Homo sapiens) = PolD4 (Homo sapiens) (UniProt Q9HCU8); assay: ITC; conditions: cited from earlier work
[3] = target: Chaetomium thermophilum PCNA (proliferating cell nuclear antigen) (Chaetomium thermophilum); assay: ITC; 420 uM Ct PolD3 peptide injected into 300 uL of 32.7 uM Ct PCNA; 25°C; 50 mM Tris-HCl, 150 mM NaCl, pH 8.0; duplicate; single site model (1 peptide: 1 PCNA protomer)

PCNA, sequence (P12004 whole entry): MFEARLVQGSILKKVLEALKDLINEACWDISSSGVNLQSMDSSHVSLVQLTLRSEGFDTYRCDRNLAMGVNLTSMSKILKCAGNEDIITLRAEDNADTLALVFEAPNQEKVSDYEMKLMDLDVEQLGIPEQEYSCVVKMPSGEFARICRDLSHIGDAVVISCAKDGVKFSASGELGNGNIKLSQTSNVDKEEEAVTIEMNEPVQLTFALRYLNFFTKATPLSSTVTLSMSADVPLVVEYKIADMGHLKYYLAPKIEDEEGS
UniProt Q15054, sequence (Q15054 2-466): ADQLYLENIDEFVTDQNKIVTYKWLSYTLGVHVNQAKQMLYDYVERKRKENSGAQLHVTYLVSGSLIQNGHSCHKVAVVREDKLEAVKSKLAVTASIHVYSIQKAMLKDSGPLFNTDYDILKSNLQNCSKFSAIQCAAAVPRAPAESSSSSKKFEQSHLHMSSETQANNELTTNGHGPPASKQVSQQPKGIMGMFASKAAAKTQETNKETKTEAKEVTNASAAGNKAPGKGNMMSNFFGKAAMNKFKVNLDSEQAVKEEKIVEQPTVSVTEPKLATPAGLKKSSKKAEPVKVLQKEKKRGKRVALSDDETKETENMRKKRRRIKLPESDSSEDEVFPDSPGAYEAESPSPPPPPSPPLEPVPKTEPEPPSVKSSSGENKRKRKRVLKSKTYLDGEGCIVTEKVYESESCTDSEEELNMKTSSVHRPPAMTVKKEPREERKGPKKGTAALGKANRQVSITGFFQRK
UniProt Q9HCU8, sequence (Q9HCU8 whole entry): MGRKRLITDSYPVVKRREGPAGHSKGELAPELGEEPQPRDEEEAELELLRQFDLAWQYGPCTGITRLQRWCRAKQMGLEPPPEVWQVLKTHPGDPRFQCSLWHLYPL

For “GAQQARIEGFFKVIP [Ct Fen1 PIP peptide, 15mer Ct Fen1 peptide spanning residues 339–353, commercially synthesised (GenScript), purity 99.1%]”, the “solubility in aqueous solution” value [1] was “insoluble in aqueous solution”.

Work on “Chaetomium thermophilum PCNA (proliferating cell nuclear antigen) (natural protein)” yielded a stoichiometry N [2] of 3.

For PCNA (from UniProt P12004), the Kd (PolD3/p66 (Homo sapiens)) is listed as 16 µM and the Kd (PolD4 (Homo sapiens)) is listed as 38 µM.

In the case of GKGGQGSIMSWFAKK [Ct PolD3 PIP peptide (15mer, residues 437-451)], the Kd [3] is reported as 43.2 µM and the stoichiometry N (PIP peptide per PCNA protomer) [3] is reported as 1.
